T1: human BCMA-Fc (human)
T1 chain: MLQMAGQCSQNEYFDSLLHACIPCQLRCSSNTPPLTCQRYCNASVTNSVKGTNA


How the values were obtained:
[1] = molecular target: cynomolgus BCMA-Fc (cynomolgus); test: SPR, 25C
[2] = molecular target: T1, human BCMA-Fc; test: SPR, 25C

cynomolgus BCMA-Fc (cynomolgus), sequence (chain, as listed by the source): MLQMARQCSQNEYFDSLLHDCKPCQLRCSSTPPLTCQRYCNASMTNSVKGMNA

| Kd [1] [nM] | Kd [2] [nM] | Binder |
| --- | --- | --- |
| 12 | 3 | P1AG5007 (E04_VH1a/VL1e) (antibody, V domains shown) VH: QVQLVQSGAEVKKPGASVKVSCKASGYTFTNYWMHWVRQAPGQGLEWMGIIHPNSGSTNYNEKFQGRVTMTRDTSTSTVYMELSSLRSEDTAVYYCARGIYDYPFAYWGQGTLVTVSS VL: DIQMTQSPSSLSASVGDRVTITCRASESVSIHGTHLMHWYQQKPGKAPKLLIYAASSLQSGVPSRFSGSGSGTDFTLTISSLQPEDFATYYCQQSIEDPYTFGGGTKVEIK |
| 22 | 2.4 | P1AG5078 (E04_VH1b/VL1d) (antibody, V domains shown) VH: QVQLVQSGAEVKKPGASVKVSCKASGYTFTNYWMHWVRQAPGQGLEWMGIIHPNSGSTNYNEKFQGRVTMTVDKSTSTVYMELSSLRSEDTAVYYCARGIYDYPFAYWGQGTLVTVSS VL: DIQMTQSPSSLSASVGDRVTITCRASESVSIHGTHLMHWYQQKPGKAPKLLIYAASNLQSGVPSRFSGSGSETDFTLTISSLQPEDFATYYCQQSIEDPYTFGGGTKVEIK |
| 9.5 | 2.9 | P1AG5036 (E04_VH1a/VL1f) (antibody, V domains shown) VH: QVQLVQSGAEVKKPGASVKVSCKASGYTFTNYWMHWVRQAPGQGLEWMGIIHPNSGSTNYNEKFQGRVTMTRDTSTSTVYMELSSLRSEDTAVYYCARGIYDYPFAYWGQGTLVTVSS VL: DIQMTQSPSSLSASVGDRVTITCRASESVSIHGTHLMHWYQQKPGKAPKLLIYAASSLQSGVPSRFSGSGSETDFTLTISSLQPEDFATYYCQQSIEDPYTFGGGTKVEIK |
| 20 | 1.8 | P1AG5044 (E04_VH1b/VL1b) (antibody, V domains shown) VH: QVQLVQSGAEVKKPGASVKVSCKASGYTFTNYWMHWVRQAPGQGLEWMGIIHPNSGSTNYNEKFQGRVTMTVDKSTSTVYMELSSLRSEDTAVYYCARGIYDYPFAYWGQGTLVTVSS VL: DIQMTQSPSSLSASVGDRVTITCRASESVSIHGTHLMHWYQQKPGKAPKLLIYAASNLESGVPSRFSGSGSETDFTLTISSLQPEDFATYYCQQSIEDPYTFGGGTKVEIK |
| 16 | 2.5 | P1AG5004 (E04_VH1a/VL1b) (antibody, V domains shown) VH: QVQLVQSGAEVKKPGASVKVSCKASGYTFTNYWMHWVRQAPGQGLEWMGIIHPNSGSTNYNEKFQGRVTMTRDTSTSTVYMELSSLRSEDTAVYYCARGIYDYPFAYWGQGTLVTVSS VL: DIQMTQSPSSLSASVGDRVTITCRASESVSIHGTHLMHWYQQKPGKAPKLLIYAASNLESGVPSRFSGSGSETDFTLTISSLQPEDFATYYCQQSIEDPYTFGGGTKVEIK |
| 28 | 1.6 | P1AG5063 (E04_VH1a/VL1a) (antibody, V domains shown) VH: QVQLVQSGAEVKKPGASVKVSCKASGYTFTNYWMHWVRQAPGQGLEWMGIIHPNSGSTNYNEKFQGRVTMTRDTSTSTVYMELSSLRSEDTAVYYCARGIYDYPFAYWGQGTLVTVSS VL: DIQMTQSPSSLSASVGDRVTITCRASESVSIHGTHLMHWYQQKPGKAPKLLIYAASNLESGVPSRFSGSGSGTDFTLTISSLQPEDFATYYCQQSIEDPYTFGGGTKVEIK |
| 23 | 1.9 | P1AG5076 (E04_VH1b/VL1h) (antibody, V domains shown) VH: QVQLVQSGAEVKKPGASVKVSCKASGYTFTNYWMHWVRQAPGQGLEWMGIIHPNSGSTNYNEKFQGRVTMTVDKSTSTVYMELSSLRSEDTAVYYCARGIYDYPFAYWGQGTLVTVSS VL: DIQMTQSPSSLSASVGDRVTITCRASESVSIHGTHLMHWYQQKPGKAPKLLIYAASNLESGVPSRFSGSGSETDFTLTISSLQPEDFATYFCQQSIEDPYTFGGGTKVEIK |
| 13 | 2.4 | P1AG5053 (E04_VH1a/VL1h) (antibody, V domains shown) VH: QVQLVQSGAEVKKPGASVKVSCKASGYTFTNYWMHWVRQAPGQGLEWMGIIHPNSGSTNYNEKFQGRVTMTRDTSTSTVYMELSSLRSEDTAVYYCARGIYDYPFAYWGQGTLVTVSS VL: DIQMTQSPSSLSASVGDRVTITCRASESVSIHGTHLMHWYQQKPGKAPKLLIYAASNLESGVPSRFSGSGSETDFTLTISSLQPEDFATYFCQQSIEDPYTFGGGTKVEIK |
| 4.7 | 2.4 | P1AG5031 (54_VH2a/VL2a) (antibody, V domains shown) VH: EVQLLESGGGLVQPGGSLRLSCAASGFTFSNAWMDWVRQAPGKGLEWVSQITAKSNNYATYYADSVKGRFTISRDNSKNTLYLQMNSLRAEDTAVYYCTDDGYHWGQGTLVTVSS VL: DIQMTQSPSSLSASVGDRVTITCRASEDIRNGLAWYQQKPGKAPKLLIYNANSLHTGVPSRFSGSGSGTDFTLTISSLQPEDFATYYCEDTSKYPYTFGQGTKLEIK |
| 4 | 1.7 | P1AG5057 (54_VH1a_Y292D/VL1a) (antibody, V domains shown) VH: EVQLVESGGGLVKPGGSLRLSCAASGFTFSNAWMDWVRQAPGKGLEWVGQITAKSNNYATDYAAPVKGRFTISRDDSKNTLYLQMNSLKTEDTAVYYCTDDGYHWGQGTLVTVSS VL: AIQMTQSPSSLSASVGDRVTITCRASEDIRNGLAWYQQKPGKAPKLLIYNANSLHTGVPSRFSGSGSGTDFTLTISSLQPEDFATYYCEDTSKYPYTFGQGTKLEIK |
| 3.2 | 1.3 | P1AG5072 (54_VH1b/VL1a) (antibody, V domains shown) VH: EVQLVESGGGLVKPGGSLRLSCAASGFTFSNAWMDWVRQAPGKGLEWIAQITAKSNNYATYYAAPVKGRFTISRDDSKNTLYLQMNSLKTEDTAVYYCTDDGYHWGQGTLVTVSS VL: AIQMTQSPSSLSASVGDRVTITCRASEDIRNGLAWYQQKPGKAPKLLIYNANSLHTGVPSRFSGSGSGTDFTLTISSLQPEDFATYYCEDTSKYPYTFGQGTKLEIK |
| 4.3 | 1.3 | P1AG5080 (54_VH1a_Y292D/VL2a) (antibody, V domains shown) VH: EVQLVESGGGLVKPGGSLRLSCAASGFTFSNAWMDWVRQAPGKGLEWVGQITAKSNNYATDYAAPVKGRFTISRDDSKNTLYLQMNSLKTEDTAVYYCTDDGYHWGQGTLVTVSS VL: DIQMTQSPSSLSASVGDRVTITCRASEDIRNGLAWYQQKPGKAPKLLIYNANSLHTGVPSRFSGSGSGTDFTLTISSLQPEDFATYYCEDTSKYPYTFGQGTKLEIK |
| 3.9 | 1.9 | P1AG5046 (54_VH1b/VL1a_T699S) (antibody, V domains shown) VH: EVQLVESGGGLVKPGGSLRLSCAASGFTFSNAWMDWVRQAPGKGLEWIAQITAKSNNYATYYAAPVKGRFTISRDDSKNTLYLQMNSLKTEDTAVYYCTDDGYHWGQGTLVTVSS VL: AIQMTQSPSSLSASVGDRVTITCRASEDIRNGLAWYQQKPGKAPKLLIYNANSLHSGVPSRFSGSGSGTDFTLTISSLQPEDFATYYCEDTSKYPYTFGQGTKLEIK |
| 1.2 | 1.7 | P1AG5027 (54_VH1b/VL1a_L1_pGL) (antibody, V domains shown) VH: EVQLVESGGGLVKPGGSLRLSCAASGFTFSNAWMDWVRQAPGKGLEWIAQITAKSNNYATYYAAPVKGRFTISRDDSKNTLYLQMNSLKTEDTAVYYCTDDGYHWGQGTLVTVSS VL: AIQMTQSPSSLSASVGDRVTITCRASEDIRNDLGWYQQKPGKAPKLLIYNANSLHTGVPSRFSGSGSGTDFTLTISSLQPEDFATYYCEDTSKYPYTFGQGTKLEIK |
| 6.5 | 3.4 | P1AG5071 (54_VH2a/VL1a_T699S) (antibody, V domains shown) VH: EVQLLESGGGLVQPGGSLRLSCAASGFTFSNAWMDWVRQAPGKGLEWVSQITAKSNNYATYYADSVKGRFTISRDNSKNTLYLQMNSLRAEDTAVYYCTDDGYHWGQGTLVTVSS VL: AIQMTQSPSSLSASVGDRVTITCRASEDIRNGLAWYQQKPGKAPKLLIYNANSLHSGVPSRFSGSGSGTDFTLTISSLQPEDFATYYCEDTSKYPYTFGQGTKLEIK |
| 13 | 3.5 | P1AG5064 (54_VH1b/VL1a_N651A_N695S) (antibody, V domains shown) VH: EVQLVESGGGLVKPGGSLRLSCAASGFTFSNAWMDWVRQAPGKGLEWIAQITAKSNNYATYYAAPVKGRFTISRDDSKNTLYLQMNSLKTEDTAVYYCTDDGYHWGQGTLVTVSS VL: AIQMTQSPSSLSASVGDRVTITCRASEDIRNGLAWYQQKPGKAPKLLIYAASSLHTGVPSRFSGSGSGTDFTLTISSLQPEDFATYYCEDTSKYPYTFGQGTKLEIK |
| 13 | 4.2 | P1AG5056 (54_VH1b/VL1a_N651A) (antibody, V domains shown) VH: EVQLVESGGGLVKPGGSLRLSCAASGFTFSNAWMDWVRQAPGKGLEWIAQITAKSNNYATYYAAPVKGRFTISRDDSKNTLYLQMNSLKTEDTAVYYCTDDGYHWGQGTLVTVSS VL: AIQMTQSPSSLSASVGDRVTITCRASEDIRNGLAWYQQKPGKAPKLLIYAANSLHTGVPSRFSGSGSGTDFTLTISSLQPEDFATYYCEDTSKYPYTFGQGTKLEIK |
| 1.9 | 2.4 | P1AG5013 (54_VH2a/VL1a_L1_pGL) (antibody, V domains shown) VH: EVQLLESGGGLVQPGGSLRLSCAASGFTFSNAWMDWVRQAPGKGLEWVSQITAKSNNYATYYADSVKGRFTISRDNSKNTLYLQMNSLRAEDTAVYYCTDDGYHWGQGTLVTVSS VL: AIQMTQSPSSLSASVGDRVTITCRASEDIRNDLGWYQQKPGKAPKLLIYNANSLHTGVPSRFSGSGSGTDFTLTISSLQPEDFATYYCEDTSKYPYTFGQGTKLEIK |
| 1.9 | 1.4 | P1AG5061 (54 parental) (antibody, V domains shown) VH: EVQLVESGGGLVKPGESLRLSCAASGFTFSNAWMDWVRQAPGKRLEWIAQITAKSNNYATYYAAPVKGRFTISRDDSKNTLYLQMNSLKKEDTAVYYCTDDGYHWGQGTLVTVSS VL: AIQMTQSPSSLSASVGDRVTIACRASEDIRNGLAWYQQKPGKAPKLLIYNANSLHTGVPSRFSGSGSGTDFTLTISSLQPEDEAIYYCEDTSKYPYTFGQGTKLEIK |
| 6.4 | 2.6 | P1AG5065 (54_VH1a_Y292D/VL1a_T699S) (antibody, V domains shown) VH: EVQLVESGGGLVKPGGSLRLSCAASGFTFSNAWMDWVRQAPGKGLEWVGQITAKSNNYATDYAAPVKGRFTISRDDSKNTLYLQMNSLKTEDTAVYYCTDDGYHWGQGTLVTVSS VL: AIQMTQSPSSLSASVGDRVTITCRASEDIRNGLAWYQQKPGKAPKLLIYNANSLHSGVPSRFSGSGSGTDFTLTISSLQPEDFATYYCEDTSKYPYTFGQGTKLEIK |
| 33 | 3.1 | P1AG5062 (E04 parental) (antibody, V domains shown) VH: QVQLQQPGAELVKPGASVKLSCKASGYTFTNYWMHWVKQRPGQGLEWIGIIHPNSGSTNYNEKFKSKATLTVDKSSSTAYMQLSSLTSEDSAVYYCARGIYDYPFAYWGQGTLVTVSS VL: DIVLTQSPASLAVSLGQRATISCRASESVSIHGTHLMHWYQQKPGQPPKLLIYAASNLESGVPARFSGSGSETDFTLNIHPVEEEDAATYFCQQSIEDPYTFGGGTKLEIK |

Reference: patent US20260285998 (published 2026)
